Results as given in CN111378037A.

Target: Human IL33-his (Human IL33 (NP_254274.1) Ser112-Thr270 with a C-terminal 6-histidine tag, expressed in E. coli) (human) (UniProt O95760)
Experiment: cell-based or functional assay

Sequence of UniProt O95760 (O95760 other isoform, or with tags, fused parts or gaps limits assumed, form in doubt): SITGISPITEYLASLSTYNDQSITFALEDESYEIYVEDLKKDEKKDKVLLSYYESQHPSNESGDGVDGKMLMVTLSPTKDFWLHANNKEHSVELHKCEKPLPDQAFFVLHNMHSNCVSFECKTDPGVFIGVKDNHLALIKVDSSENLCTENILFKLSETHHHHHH

IC50 of inhibition of IL-5 production by KU812 cells stimulated with IL33: 0.51 µg/mL
Substance: 对照抗体 ANB020 (antibody)
